Measured values reported in patent US20210070819A1 (INSERM INSTITUT NATIONAL DE LA SANT ET DE LA RECHERCHE M …, published 2021).

Key:
[1] = molecular target: T1, biotin-tagged HLA-A*03:01 monomers (immunAware) (human, biotin tag); assay: flow cytometry bead assay: biotinylated HLA-A*03:01 monomer folded with peptide, captured on streptavidin beads, detected with anti-β2-microglobulin BBM.1; 1.2 nM complex (data not shown)
T1 construct: Bought monomers folded around the test peptide; also called HLA-A3; A3

[2] = molecular target: T2, HLA-A*02:01 (human); assay: experimental HLA-A2 peptide binding assay, format not described (data not shown)
T2 construct: also called HLA-A2; A2

B1: SCG5-009193-201 (peptide)
peptide: RLKPSLVGK
[1]
  binding result: binds

B2: SCG5-009186-194 (peptide)
peptide: FLSGAVNRL
notes: also called SCG-009186-194
[2]
  binding result: binds

B3: SCG5186-195 (peptide)
peptide: YLQGQRLDNV
[2]
  binding result: binds
